According to patent publication US20200223906A1 (Adimab, published 2020):

Assays:
[1] = target: RSV F protein of subtype A (strain A2) on recombinant mKate-RSV virus (Respiratory syncytial virus subtype A …, UniProt P03420 26-574); assay: cell-based or functional assay
[2] = target: RSV F protein of subtype B (18537) on recombinant mKate-RSV virus (Respiratory syncytial virus subtype B …, UniProt P13843 26-574); assay: cell-based or functional assay
[3] = target: T1, RSV F subtype A, furin-cleaved ectodomain stabilized in the prefusion conformation (DS-Cav1) (Respiratory syncytial virus subtype A, UniProt P03420 26-524); assay: BLI, IgG on AHQ sensor, 100 nM antigen
T1 construct: extracellular domain; Trimeric soluble antigen; also called Prefusion subtype A

[4] = target: T2, RSV F subtype B, furin-cleaved ectodomain stabilized in the prefusion conformation (DS-Cav1) (Respiratory syncytial virus subtype B); assay: BLI, IgG on AHQ sensor, 100 nM antigen
T2 construct: extracellular domain; Trimeric soluble antigen; also called Prefusion subtype B

Row | Binder | Neut IC50 (µg/ml) subtype A [1] | Neut IC50 (µg/ml) subtype B [2] | Kd [3] | Kd [4]
1 | ADI-18928 (antibody, V domains shown, full-length IgG from yeast) VH: QVQLVQSGAEVKRPGSSVRVSCKASGGTFRKYAISWVRQARGQGLEWMGGIIPMSGPPSYAQKFQGRVTITADESTSTVYMELSSLRFEDTAVYFCARDIEWFVLMDPITSYYPMDVWGQGTTVTVSS VL: QSVVTQEPSLTVSPGGTVTLTCGSSTGGVTSGHHTYWFQQKPGQAPRTLIYDTTNTHSWTPARFAGSLLGGKAALTLSGAQPEDEADYYCLLSYSGARPVFGGGTKLTVL | 0.034 µg/mL | 0.062 µg/mL | 0.449 nM | 0.515 nM
2 | ADI-18880 (antibody, V domains shown, full-length IgG from yeast) VH: QVQLVQSGSEVKKPGAAVKVSCKASGYIFANFGVSWVRQAPGQGLEWMGWISAYNGNTNYAQKFQGRVIMTTDTSTSTAYMELRSLRSDDTAVYYCARDPPAYAATLMDVWGKGTTVTVSS VL: EIVLTQSPLSLPVTLGQSASISCRSSQSLEHSDTNTYLTWYQQRPGQSPRRLLYKVSNRDSGVPDRFSGSGSGTDFTLKISRVEAEDVGVYYCMQGTHWPPTFGQGTKVDIK | 0.041 µg/mL | 0.055 µg/mL | 0.255 nM | 0.304 nM
3 | ADI-18904 (antibody, V domains shown, full-length IgG from yeast; also called Antibody Number 259; Ab # 259) VH: EVQLVESGSEVKKPGAAVKVSCKASGYIFANFGVSWVRQAPGQGLEWMGWISAYNGNTNYAQKFQGRVIMTTDTSTSTAYMELRSLRSDDTAVYYCARDPPAYAATLMDVWGKGTTVTVSS VL: DIVMTQSPLSLPVTLGQSASISCRSSQSLEHSDTNTYLTWYQQRPGQSPRRLLYKVSNRDSGVPDRFSGSGSGTDFTLKISRVEAEDVGVYYCMQGTHWPPTFGQGTKLEIK | 0.018 µg/mL | 0.089 µg/mL | 0.251 nM | 0.237 nM
4 | ADI-18932 (antibody, V domains shown, full-length IgG from yeast) VH: QVQLQESGPGLVRPSQTLSLTCSASGAAINSGDYYWSWIRQAPGRGLEWIGSISNRGVTDYNPSLKSRVIISADTSKNQFSLRLTSVTATDTAVYYCARDLGTLAFDPYYYYGIDVWGQGTTVTVSS VL: DIRMTQSPATLSLSPGERATLSCRASQSVSRHLAWYQQKPGQAPRLLIYDASYRVTGVPDRFSGSGSGTDFTLTISSLESEDFAIYFCQQRSTWPTFGQGTKVEIK | 0.184 µg/mL | 0.351 µg/mL | 0.917 nM | 1.39 nM
5 | ADI-18927 (antibody, V domains shown, full-length IgG from yeast) VH: QVQLVQSGAEVKKPGASVKVSCKASGYTFTDYFIHWVRQAPGEGLEWMGWVNPLSDNTKYSQKFQGRVTMSTDTSITTAYMYLSRLRFDDTAVYFCASQSSPYTPGALDVWGQGTTVTVSS VL: DIQLTQSPSSLPASVGDRVTITCRASQNIGNNLAWYQQKAGRAPKLLIYSASNFHSGVPSRFIGSGSGTVFTLTISSLQPEDFATYFCQQSFTPQFTFGPGTKVEIK | 0.022 µg/mL | 0.067 µg/mL | 3.58 nM | 2.99 nM
6 | ADI-18879 (antibody, V domains shown, full-length IgG from yeast) VH: EVQLLESGGEVKKPGASVKVSCRASGYTFRNYGLTWVRQAPGQGLEWMGWISAYNGNTNYAQKFQGRVTLTTDTSTSTAYMELRSLRSDDTAVYFCARDVPGHGAAFMDVWGTGTTVTVSS VL: DIQLTQSPLSLPVTLGQPASISCRSSQSLEASDTNIYLSWFQQRPGQSPRRLIYKISNRDSGVPDRFSGSGSGTHFTLRISRVEADDVAVYYCMQGTHWPPAFGQGTKVDIK | 0.041 µg/mL | 0.103 µg/mL | 0.312 nM | 0.358 nM
7 | ADI-18903 (antibody, V domains shown, full-length IgG from yeast) VH: EVQLVESGGEVKKPGASVKVSCRASGYTFRNYGLTWVRQAPGQGLEWMGWISAYNGNTNYAQKFQGRVTLTTDTSTSTAYMELRSLRSDDTAVYFCARDVPGHGAAFMDVWGTGTTVTVSS VL: ETTLTQSPLSLPVTLGQPASISCRSSQSLEASDTNIYLSWFQQRPGQSPRRLIYKISNRDSGVPDRFSGSGSGTHFTLRISRVEADDVAVYYCMQGTHWPPAFGQGTKLEIK | 0.036 µg/mL | 0.118 µg/mL | 0.324 nM | 0.272 nM
8 | ADI-18937 (antibody, V domains shown, full-length IgG from yeast; also called Antibody Number 290; Ab # 290) VH: QVQLQESGPGLVKPSQTLSLTCTVSGPSISAGDYNWNWIRQAPGKGLEWVGYIDYRGLTHYNPSLKGRLSILMDRSANQFSLELNSVTAADTAVYYCARDVGVYSGYDVFHYYGMDVWGQGTTVTVSS VL: ETTLTQSPVTLSLSPGERATLSCRASQYVRNNYLAWYQHKPGQAPRLLIYSASSRVTGTPDRFSGSGSGTDFTLTISRLEPEDFAVYYCQQYGGSPPVTFGPGTKVDIK | 0.084 µg/mL | 0.508 µg/mL | 0.289 nM | 0.273 nM
9 | ADI-18936 (antibody, V domains shown, full-length IgG from yeast) VH: EVQLLESGAEVKKPGASVRVSCKASGYTFTDYFMNWVRQAPGGGLEWMGWVNPLSGATKYAQKFQGRVTMTTDTSITTGYLDLRSLRVDDTAIYFCASQSSPYTPGAMGVWGQGTTVTVSS VL: DIQVTQSPSSLSASVGDRVTITCRASQSISGYLSWYQQKPGKAPNLLIYATSNLYSGVPSRFSGRDSGTDFTLTITSLQPEDFATYFCQLNSGALFTFGPGTKVEIK | 0.032 µg/mL | 0.035 µg/mL | 0.303 nM | 0.298 nM
10 | ADI-18921 (antibody, V domains shown, full-length IgG from yeast) VH: QVQLVQSGSEVKKPGASVRLSCKVAGYSLSELSMHWVRQSPGKGLEWLGAFDHEDAEAIYAPRFQGRITMTADTSTDTAYMELSSLRSEDTAVYYCATPTPVGATDYWGQGTLVTVSS VL: DIQMTQSPSSLSASVGDRVTITCRASQSISSYLNWYQQKPGKAPKLLIYAASSLQRGGPSRFSGSGSGTDFTLTISSLQPEDFATYYCQQSYIIPYTFGQGTKVDIK | 1.7 µg/mL | 1.17 µg/mL | 5.75 nM | –
11 | ADI-18967 (antibody, V domains shown, full-length IgG from yeast; also called Antibody Number 315; Ab # 315) VH: QVQLVQSGAEVKKPGASVKVACKVSGSSLTELSIQWVRLPPGKRLEWLGAFDAEDGAPIYSPKFQGRVTMTEDRSTETAYMEVTSLRSEDTALYYCATPLPAGALDKWGQGTLVTVSS VL: DIQMTQSPSSLSASVGDRVTISCRASQTISRYLNWYQVKPGTAPKLLIYAASSLQTGVPSRFSASGSGADFTLTISSLQPEDFATYHCQQTYIIPYTFGQGTKVDIK | 6.74 µg/mL | 3.65 µg/mL | 0.809 nM | –
12 | ADI-18930 (antibody, V domains shown, full-length IgG from yeast) VH: QVQLVQSGAEVKKPGSSVKVSCKASGGTFSGYHISWVRQAPGQGLEWMGGIIHLFGTVNYAPKFQGRVTITADASTGTAYMELNSLMSEDTAVYYCARDAYEVWTGSYLPPFDYWGQGTLVTVSS VL: EIVLTQSPGTLSLSPGERVTLSCRASQTVTSSYLAWYQQKPGQAPRLLIYGAFTRATDIPDRFSGSGSGTDFTLTISRLEPEDSAVYYCQQYGSSFLTFGGGTKVDIK | 0.013 µg/mL | 0.051 µg/mL | 0.387 nM | 0.372 nM
13 | ADI-18882 (antibody, V domains shown, full-length IgG from yeast) VH: QVQLVQSGAEVKKPGSSVRVSCKASGGTFRGYGLSWVRQAPGQGLEWMGGITHLFGTVSYAPKFQGRLTITADASTGTAYMELSSLISEDTAVYFCARDAYEVWTGSYLPPFDYWGQGTMVTVSS VL: DIVMTQSPGTLSLSPGERVTLSCRASQIIPSSYLAWYQQKPGQAPRLLIYGAFTRATDIPDRFSGSGSGTDFTLTISRLEPEDFAVYYCQQYGSSFLTFGGGTKVEIK | 0.041 µg/mL | 0.057 µg/mL | 0.427 nM | 0.476 nM
14 | ADI-18935 (antibody, V domains shown, full-length IgG from yeast) VH: QVQLQESGPGLVKPSQTLSLTCTVSGRLLSSGDYYWSWIRQSPGRGLEWIGYVYHSGTTSYNPSLKSRITMTVDTSKNQFNLRLTSVTAADTAVYYCARDLGYSSSSPAFYYGIDFWGPGTMVTVSS VL: EIVLTQSPATLSLSPGQRATLSCRASQSVGNYLAWYQQKPGQAPRLLIYDASNRVTGIPARFSGSGSGTDFTLTISRLESEDFAVYYCQQRSNGVLTFGGGTKVDIK | 0.779 µg/mL | 0.355 µg/mL | 0.66 nM | 0.582 nM
15 | ADI-18875 (antibody, V domains shown, full-length IgG from yeast; also called Antibody Number 232; Ab # 232) VH: QVQLQQWGAGLLKPSETLSLTCAVYGGSFSGYSWSWIRQTPGKGLEWIGEINHRGSTNYNPSLKSRVTMSVDTSQNQISLRVTSVTAADTAVYFCAGTNYGEVNTSNQYFFGMDVWGQGTTVTVSS VL: DIQVTQSPSSLSASVGDRVTITCRASQSIGTYLNWYQQKPGKPPKLLIYAASNLESGVPSSFSGSGSGTHFTLTISSLQPEHFATYYCQQSYSTPLTFGGGTKVEIK | 0.04 µg/mL | 0.035 µg/mL | 0.736 nM | 0.764 nM
16 | ADI-18939 (antibody, V domains shown, full-length IgG from yeast; also called Antibody Number 292; Ab # 292) VH: QVQLQQWGAGLLKPSETLSLTCAVYGGSFSGYSWSWIRQSPGKGLEWIGEINHRGSTNYNPSLKSRVTISVDTSKNQFSLKLSSVTAADTAVYYCAGTNYGEVNTSNQYFFGMDVWGQGTTVTVSS VL: DIRLTQSPSSLSASVGDRVTITCRASQSITTYLNWYQQKPGKAPKLLIYAASNLESGVPSSFSGSGFGTDFTLTISSLQPDDFATYYCQQSYSAPLTFGGGTKVDIK | 0.018 µg/mL | 0.038 µg/mL | 0.574 nM | 0.56 nM
